Reference: the nanobody polyreactivity screen of Harvey et al. (2022)

Assay: yeast display, Sf9 membrane polyspecificity reagent, FACS + sequencing; frameworks hold sequencing errors
How it was run: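 A nanobody's polyreactivity label depends on the gate it was sorted from. Yeast display cells were stained with 10% biotinylated, detergent-solubilized Sf9 membrane reagent for 1 hour at 4 °C, enriched on streptavidin microbeads and sorted by FACS. The low and high (top ~1%) gates were set on anti-HA fluorescence for expression and streptavidin fluorescence for reagent binding.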

## QVQLVESGGGLVQAGGSLRLSCAASGSTFGVYTMGWYIQAPGKERELVAAITKSGGSTYYADSVKGRFTISRDNAKNTVYLQMNSLKPEDTAVYYCNTDYGRYLYYRYGYWGQGTQVTVSS
  polyreactivity (PSR sort gate): low polyreactivity

## QVQLVESGGGLVQAGGSLRLSCAASGSTFGWNAMGRYRQAPGKERELVAAISSSGGSTNYADSVKGRFTISRDNAKNTVYLQMTSLKPEDTAVYYCAKARRPGYGYGYWGQGTQLTVSS
  polyreactivity (PSR sort gate): low polyreactivity

## QVQLVESGGGLVQAGGSLRLSCAASGSTFGWYAMGWYRQAPGKERELVAAISYIGGSTYADSVKGRFTISRDNAKNTVYLQMKSLKPEDTAVYYCNAVVYGKSYGSRIYDYWGQGTQVTVSS
  polyreactivity (PSR sort gate): high polyreactivity

## QVQLVESGGGLVQAGGSLRLSCAASGSTFGWYAMGWYRQAPGKERELVAAITSVGSTYYADYVKGRFTISRDNAKNTVYLQMNSLKPEDTAVYYCANRFGYGWAWFGYWGQGTQVTVSS
  polyreactivity (PSR sort gate): low polyreactivity

## QVQLVESGGGLVQAGGSLRLSCAASGSTFGWYAMVWYRQAPGKERELVAAIRNNDGRTYYADSVKGRFTISRDNAKNTVYLQMNSLKPEDTAVYYCNADYRSHYLYDYWGQGTQVTVSS
  polyreactivity (PSR sort gate): low polyreactivity

## QVQLVESGGGLVQAGGSLRLSCAASGSTFGYAMGWYRQAPGKERELVAAITSTGGSTYYADSVKGRFTISRDNAKNTVYLQKNSLKPEDTAVYDCAADAYWIRSRFLYRMRSNSWGQGTQVTVSS
  polyreactivity (PSR sort gate): high polyreactivity

## QVQLVESGGGLVQAGGSLRLSCAASGSTFGYNAMGCYRQAPGKERELVAAISRSGGRTYYADSVKGRFTISRDNAKNTVYLQMNSLIPEDTAVYYCATYYTNKVPARYYWGQGTQVTVSS
  polyreactivity (PSR sort gate): high polyreactivity

## QVQLVESGGGLVQAGGSLRLSCAASGSTFGYNAMGGYRQAPGKERELVAAITWTGASTYYADSVKGRFTISRDNAKNTVYLQMNSLKPEDTAVYYCNLVGYQSMNYWGQGTQVTVSS
  polyreactivity (PSR sort gate): low polyreactivity

## QVQLVESGGGLVQAGGSLRLSCAASGSTFGYNAMGWYRQAPGKERELVAAISRSGGRTYYADSVKGRFTISRDNAKNTVYLQMNSLKPEDTAVYFCATYYTNKVPARYYWGQGTQVTVSS
  polyreactivity (PSR sort gate): high polyreactivity

## QVQLVESGGGLVQAGGSLRLSCAASGSTFGYNTMGWYRQAPGKERELVASITGRGGSTYYADSVKGRFTSSRDNAKNTVYLQMNSLKPEDTAVYYCAAAWKAYRRYGYWGQGTQVTVSS
  polyreactivity (PSR sort gate): high polyreactivity

## QVQLVESGGGLVQAGGSLRLSCAASGSTFGYYAMGWYRHAHGKERELVAAITGSVDSTYYADSVKGRFTISRDNAKNTVYLQMNSLKPEDTAVYYCAADTYSTYWGQGTQVTVSS
  polyreactivity (PSR sort gate): low polyreactivity

## QVQLVESGGGLVQAGGSLRLSCAASGSTFGYYAMGWYRHAPGKERELVAAISWRGGSTYYADSVKGRYTISRDNAKNTVYLQMISLKPEDTAVYYCAAPVGNYGSFDYWGQGTQVTVSS
  polyreactivity (PSR sort gate): low polyreactivity

## QVQLVESGGGLVQAGGSLRLSCAASGSTFGYYAMGWYRQAHGKERELVAAITSGGSTNYADSVKGRFTISRDNAKNTVYLQMNSLKPEDTAVYYCAAADSYRYHLRRYNYWGQGTQVTVSS
  polyreactivity (PSR sort gate): low polyreactivity

## QVQLVESGGGLVQAGGSLRLSCAASGSTFGYYAMGWYRQAPGKERELVAAISYRSGSTYYADSVNGRFTISRDNAKNTVYLQMNSLKPEDTAVYYCAPVIQRQQRYEYWGQGTQVTVSS
  polyreactivity (PSR sort gate): high polyreactivity

## QVQLVESGGGLVQAGGSLRLSCAASGSTFGYYAMGWYRQAPGKERELVAAITGSGGCTYYADSVKGRFTISRDNAKNTVYLQMNSLKPEDTAVYYCATPTKFVRDDYWGQGTQVTVSS
  polyreactivity (PSR sort gate): low polyreactivity

## QVQLVESGGGLVQAGGSLRLSCAASGSTFGYYAMGWYRQAPGKERELVAAITRGASTYYADSVNGRFTISRDNAKNTVYLQMNSLKPDDTAVYYCAFDTWKVQGASSRYRKMYYWGQGTQVTVSS
  polyreactivity (PSR sort gate): low polyreactivity

## QVQLVESGGGLVQAGGSLRLSCAASGSTFGYYAMGWYRQAPGKERELVASITWGGGSTYYADSVKGRFTISRDNAKNTVYLQMNSLNPEDTAVYYCAATILGGTWGYGSYTYYYWGQGTQVTVSS
  polyreactivity (PSR sort gate): low polyreactivity

## QVQLVESGGGLVQAGGSLRLSCAASGSTFGYYAMGWYRQAPGKERELVATMSATGGSTYYADSVKGRFTISRDKAKNTVYLQMNSLKPEDTAVYYCNAEYDRGNEYDYWGQGTQVTVSS
  polyreactivity (PSR sort gate): low polyreactivity

## QVQLVESGGGLVQAGGSLRLSCAASGSTFGYYAMGWYRQAPGKERELVAVITRGGSTYYADSVKGRFTISRDNAKNTVYLQLNSLKPEDTAVYYCNARVQAVHYGYWGQGTQVTVSS
  polyreactivity (PSR sort gate): high polyreactivity

## QVQLVESGGGLVQAGGSLRLSCAASGSTFGYYAMGWYRQAPGKEREVVAALDSSGDTYYADSVKGRFTISRDNAKNTVYFQMNSLKPEDTAVYYCAADFWVSSYWGYGYWGQGTQVTVSS
  polyreactivity (PSR sort gate): high polyreactivity

## QVQLVESGGGLVQAGGSLRLSCAASGSTFGYYAMGWYRQAPGKESELVATINWSGGSTYYADSVKGRFTISRDNAKNTVYLQMNSLKPEDTAVYYCAADPYLQYYWAYDYWGQGTQVTVSS
  polyreactivity (PSR sort gate): low polyreactivity

## QVQLVESGGGLVQAGGSLRLSCAASGSTFGYYAMGWYRQATGKERELVAAISSGGSTSYADSVKGRFTISRDNAKNTVYLQMNSLKPEDTAVYYCNTSYRKKKRYYYWGQGTQVTVSS
  polyreactivity (PSR sort gate): high polyreactivity

## QVQLVESGGGLVQAGGSLRLSCAASGSTFGYYAMGWYRQEPGKERELVAAISRGSSTYYADSVKGRFTISRDNAKNTVYLQMNSLKPEDTAVYYCAAKRYAYGSLDYWGQGTQVTVSS
  polyreactivity (PSR sort gate): high polyreactivity

## QVQLVESGGGLVQAGGSLRLSCAASGSTFGYYAMRWYRQAPGKERELVAAIRSSGGGTYYADSVKGRFTISRDNAKNTVYLQMNSLKPEDTAVYYCATDAPILVNAEYDEWLEYDYWGQGTQVTVSS
  polyreactivity (PSR sort gate): low polyreactivity

## QVQLVESGGGLVQAGGSLRLSCAASGSTFGYYGMGWYRQAPGKERELVASIDSRGDSTYADSVKGRFTISRDNAKNTVYLQMNSLKPEDTAVYYCAADSWYSWFDSWGQGTQVTVSS
  polyreactivity (PSR sort gate): low polyreactivity

## QVQLVESGGGLVQAGGSLRLSCAASGSTFGYYTMGWYREAPGKERELVAAISWSGGSTYYADSVKGRFTISRDNAKNTVYLQMNSLKPEDTAVYYCAALGYTYKYYSYYWGQGTQVTVSS
  polyreactivity (PSR sort gate): high polyreactivity

## QVQLVESGGGLVQAGGSLRLSCAASGSTFGYYTMGWYRQAPGKERELVAALTWSGGSTYYADSVKGRFTISRDNAKNTVYLQMNSLKPEDTAVYYCAADDYWTPFGYWGQGSQVTVSS
  polyreactivity (PSR sort gate): low polyreactivity

## QVQLVESGGGLVQAGGSLRLSCAASGSTFGYYTMGWYRQAPGKERELVASISWSGASTHYADSVKGRFTISRDNAKNTVYLPMNRLKPEDTAVYYCAADSYPAYLGFVGFDYWGQGTQVTVSS
  polyreactivity (PSR sort gate): low polyreactivity

## QVQLVESGGGLVQAGGSLRLSCAASGSTFGYYTMGWYRQEPVKETELVAAISYSGGRTFYADSVKGRFTISRDNAKNSVYLQMKSLKTEDTEVYYCNKRYIPSYLSHLDYWGQGTQVTVSS
  polyreactivity (PSR sort gate): high polyreactivity

## QVQLVESGGGLVQAGGSLRLSCAASGSTFHKYTMGWYRQAPGKEREFVAAITRNGGTTSYADSVKGRFTISRDNAKNTVYLQMNSLKPEDTAVYYCAVKWRRQINYDYWGQGTQVTVSS
  polyreactivity (PSR sort gate): high polyreactivity

## QVQLVESGGGLVQAGGSLRLSCAASGSTFHLNAMGWYIQAPGKERELVAAISLSGGSTYYADSVKGRFTISRDHAKNTVYLQMNSLKPEYTAVYYCAAEQWYDNYLEYDYWGQGTEVTVSS
  polyreactivity (PSR sort gate): high polyreactivity

## QVQLVESGGGLVQAGGSLRLSCAASGSTFHLNAMGWYRQAPGKERELVAAISWDGSSTSYADSVKGRFTISRDNAKNTVYLQMNSLKPEDTAVYYCAKRSSGVSVPVAYGGIKRYNSWGQGTQVTVSS
  polyreactivity (PSR sort gate): low polyreactivity
